± gives the standard error. For part of these data: This sample holds only a part of the variants without activity.
B1: glmS ribozyme (parent)
chain: AUAAAAGCGCCAGAACUACAGAAAUGUAGUUGACGAGGAGGAGGUUUAUCGAAUUUUCGGCGGAUGCCUCCAAA

How the values were obtained:
Details in all cases: with glucosamine-6-phosphate
glucosamine-6-phosphate [1] = variants of: B1; test: kcat; higher = faster cleavage; RNA array
Outline: (§1)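 Glucosamine-6-phosphate in HEPES/KCl/Mg(OAc)2 buffer, at 40 μM to 10 mM, was flowed over barcoded ribozyme variants transcribed in situ by E. coli RNA polymerase on sequenced MiSeq chips. Tracking was through a hybridised Cy3 probe at 37 °C. kobs, kcat and KM came from exponential decay fits and weighted Michaelis–Menten fits of normalised per-tile medians.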

glucosamine-6-phosphate [2] = variants of: B1; test: self-cleavage kobs at 160 uM GlcN6P; higher = faster cleavage; RNA array
Outline: as §1

glucosamine-6-phosphate [3] = variants of: B1; test: self-cleavage kobs at 640 uM GlcN6P; higher = faster cleavage; RNA array
Outline: as §1

glucosamine-6-phosphate [4] = variants of: B1; test: self-cleavage kobs at 2500 uM GlcN6P; higher = faster cleavage; RNA array
Outline: as §1

glucosamine-6-phosphate [5] = variants of: B1; test: self-cleavage kobs at 10000 uM GlcN6P; higher = faster cleavage; RNA array
Outline: as §1

glucosamine-6-phosphate [6] = variants of: B1; test: KM; higher = weaker cofactor use; RNA array
Outline: as §1

glucosamine-6-phosphate [7] = variants of: B1; test: self-cleavage kobs at 40 uM GlcN6P; higher = faster cleavage; RNA array
Outline: as §1

| Variant | kcat (glucosamine-6-phosphate [1]) | self-cleavage kobs at 160 uM GlcN6P (glucosamine-6-phosphate [2]) | self-cleavage kobs at 640 uM GlcN6P (glucosamine-6-phosphate [3]) | self-cleavage kobs at 2500 uM GlcN6P (glucosamine-6-phosphate [4]) | self-cleavage kobs at 10000 uM GlcN6P (glucosamine-6-phosphate [5]) | KM (glucosamine-6-phosphate [6]) | self-cleavage kobs at 40 uM GlcN6P (glucosamine-6-phosphate [7]) |
| --- | --- | --- | --- | --- | --- | --- | --- |
| G13U A15G | 0.00265 ± 0.0011 s⁻¹ | 0.000116 ± 5e-05 s⁻¹ | 0.000388 ± 7.5e-05 s⁻¹ | 0.000584 ± 0.00014 s⁻¹ | 0.00191 ± 0.00025 s⁻¹ |  |  |
| A14G G59A | 0.000294 ± 1.8e-05 s⁻¹ |  | 6.96e-05 ± 1.2e-05 s⁻¹ | 0.000183 ± 3.7e-05 s⁻¹ | 0.000239 ± 3e-05 s⁻¹ | 2010 ± 250 µM |  |
| A33G U65A C70G | 4e-05 ± 6.6e-06 s⁻¹ |  |  |  |  | 627 ± 310 µM | < 1e-05 s⁻¹ |
| G38A U55G | < 1e-05 s⁻¹ | < 1e-05 s⁻¹ |  |  |  |  |  |
| A39C U57C | 1.89e-05 ± 2.4e-06 s⁻¹ |  |  | 1.97e-05 ± 9.4e-06 s⁻¹ |  |  |  |
| A42G C71U | 0.0155 ± 0.0039 s⁻¹ | 0.00294 ± 0.00058 s⁻¹ | 0.0053 ± 0.0011 s⁻¹ | 0.0147 ± 0.0047 s⁻¹ | 0.0178 ± 0.0034 s⁻¹ | 732 ± 250 µM | 0.000864 ± 0.0001 s⁻¹ |
| C16A C61G | 1.13e-05 ± 1.7e-08 s⁻¹ |  |  |  |  | 158.6 ± 1.5 µM |  |
| G44C C67U | 0.00192 ± 0.00015 s⁻¹ | 0.000153 ± 3.2e-05 s⁻¹ | 0.000532 ± 0.00011 s⁻¹ | 0.00109 ± 0.00024 s⁻¹ | 0.00168 ± 0.0003 s⁻¹ | 1700 ± 200 µM | 5.1e-05 ± 1.3e-05 s⁻¹ |
| G40A U55G | 0.00116 ± 0.00032 s⁻¹ | 0.000246 ± 5.5e-05 s⁻¹ | 0.000944 ± 0.00014 s⁻¹ |  | 0.00106 ± 0.00018 s⁻¹ | 369 ± 170 µM | 0.000131 ± 1.8e-05 s⁻¹ |
| U54C G62C | < 1e-05 s⁻¹ | < 1e-05 s⁻¹ | < 1e-05 s⁻¹ | < 1e-05 s⁻¹ |  | 133 ± 48 µM | < 1e-05 s⁻¹ |
| C50G G62C | 2.62e-05 ± 7.9e-06 s⁻¹ |  |  |  |  |  |  |
| A12U U57G | 0.000297 ± 3.7e-05 s⁻¹ | 4.4e-05 ± 2.1e-05 s⁻¹ | 6.1e-05 ± 1.2e-05 s⁻¹ | 0.000162 ± 2.6e-05 s⁻¹ | 0.000241 ± 3e-05 s⁻¹ | 2260 ± 590 µM |  |
| C58A | 0.000863 ± 0.00012 s⁻¹ | 3.84e-05 ± 2.2e-06 s⁻¹ | 0.000118 ± 2.7e-06 s⁻¹ | 0.000305 ± 7.2e-06 s⁻¹ | 0.000665 ± 2.3e-05 s⁻¹ | 4110 ± 820 µM | 1.13e-05 ± 2.2e-06 s⁻¹ |
| A39U A48C | 0.000221 ± 2.1e-05 s⁻¹ |  |  | 0.000181 ± 1.8e-05 s⁻¹ | 0.000196 ± 1.6e-05 s⁻¹ | 836 ± 370 µM |  |
| G43U A52G | < 1e-05 s⁻¹ | < 1e-05 s⁻¹ | < 1e-05 s⁻¹ |  |  | 5960 ± 590 µM | < 1e-05 s⁻¹ |
| G29U G59U | < 1e-05 s⁻¹ | < 1e-05 s⁻¹ |  |  |  |  |  |
| C8U C67A | < 1e-05 s⁻¹ |  | < 1e-05 s⁻¹ |  |  |  |  |
